# B1: Circadian locomoter output cycles protein kaput (Mus musculus), O08785 (parent)
# chain: MVFTVSCSKMSSIVDRDDSSIFDGLVEEDDKDKAKRVSRNKSEKKRRDQFNVLIKELGSMLPGNARKMDKSTVLQKSIDFLRKHKETTAQSDASEIRQDWKPTFLSNEEFTQLMLEALDGFFLAIMTDGSIIYVSESVTSLLEHLPSDLVDQSIFNFIPEGEHSEVYKILSTHLLESDSLTPEYLKSKNQLEFCCHMLRGTIDPKEPSTYEYVRFIGNFKSLTSVSTSTHNGFEGTIQRTHRPSYEDRVCFVATVRLATPQFIKEMCTVEEPNEEFTSRHSLEWKFLFLDHRAPPIIGYLPFEVLGTSGYDYYHVDDLENLAKCHEHLMQYGKGKSCYYRFLTKGQQWIWLQTHYYITYHQWNSRPEFIVCTHTVVSYAEVRAERRRELGIEESLPETAADKSQDSGSDNRINTVSLKEALERFDHSPTPSASSRSSRKSSHTAVSDPSSTPTKIPTDTSTPPRQHLPAHEKMTQRRSSFSSQSINSQSVGPSLTQPAMSQAANLPIPQGMSQFQFSAQLGAMQHLKDQLEQRTRMIEANIHRQQEELRKIQEQLQMVHGQGLQMFLQQSNPGLNFGSVQLSSGNSNIQQLTPVNMQGQVVPANQVQSGHISTGQHMIQQQTLQSTSTQQSQQSVMSGHSQQTSLPSQTPSTLTAPLYNTMVISQPAAGSMVQIPSSMPQNSTQSATVTTFTQDRQIRFSQGQQLVTKLVTAPVACGAVMVPSTMLMGQVVTAYPTFATQQQQAQTLSVTQQQQQQQQQPPQQQQQQQQSSQEQQLPSVQQPAQAQLGQPPQQFLQTSRLLHGNPSTQLILSAAFPLQQSTFPPSHHQQHQPQQQQQLPRHRTDSLTDPSKVQPQ
# Key:
# Details in all cases: with Bmal1, Q9WTL8-4
# Chain of Bmal1, Q9WTL8-4 (Q9WTL8 other isoform, or with tags, fused parts or gaps): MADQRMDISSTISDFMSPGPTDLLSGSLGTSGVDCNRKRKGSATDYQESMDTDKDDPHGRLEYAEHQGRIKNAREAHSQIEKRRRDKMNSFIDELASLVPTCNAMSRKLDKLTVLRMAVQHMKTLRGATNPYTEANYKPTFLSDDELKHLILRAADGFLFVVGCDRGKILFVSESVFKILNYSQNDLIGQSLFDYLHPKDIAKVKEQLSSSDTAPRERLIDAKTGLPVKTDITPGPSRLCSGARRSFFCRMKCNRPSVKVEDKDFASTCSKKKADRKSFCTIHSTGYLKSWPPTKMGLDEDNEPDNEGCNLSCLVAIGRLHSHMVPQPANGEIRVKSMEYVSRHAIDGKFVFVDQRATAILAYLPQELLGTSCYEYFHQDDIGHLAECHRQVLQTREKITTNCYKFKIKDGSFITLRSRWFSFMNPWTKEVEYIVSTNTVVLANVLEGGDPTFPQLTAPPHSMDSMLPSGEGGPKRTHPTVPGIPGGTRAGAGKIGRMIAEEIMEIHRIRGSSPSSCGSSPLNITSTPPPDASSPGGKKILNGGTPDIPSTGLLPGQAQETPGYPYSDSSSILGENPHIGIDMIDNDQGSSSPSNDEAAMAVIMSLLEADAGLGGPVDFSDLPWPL
# Bmal1, Q9WTL8-4 [1] = variants of: B1
# Bmal1, Q9WTL8-4 [2] = variants of: B1; remark: listed apart in the source
# Bmal1, Q9WTL8-4 [3] = variants of: B1; remark: listed apart in the source
"effect of a mutation on the interaction (Bmal1, Q9WTL8-4 [1])","effect of a mutation on the interaction (Bmal1, Q9WTL8-4 [2])","effect of a mutation on the interaction (Bmal1, Q9WTL8-4 [3])",Variant
with no effect,,,L113E
with no effect,,,F122D
disrupting interaction strength,,decreasing interaction strength,W284A

# The next lines start with the variant.
Variant,"effect of a mutation on the interaction (Bmal1, Q9WTL8-4 [1])","effect of a mutation on the interaction (Bmal1, Q9WTL8-4 [2])","effect of a mutation on the interaction (Bmal1, Q9WTL8-4 [3])"
L57E,with no effect,decreasing interaction strength,
V315R,with no effect,decreasing interaction strength,
L57E;L113E;W284A,disrupting interaction strength,disrupting interaction strength,
L74E,disrupting interaction strength,decreasing interaction strength,
